Test results published in patent US20160130336A1.
pKd: −log10 of the molar value.

Target: mVEGF (mouse (from the prefix m only; not spelled out in the filing)) (UniProt Q00731)
Assay: BIAcore (SPR), column mVEGF

Chain of mVEGF (mouse (from the prefix m only; not spelled out in the filing)) (Q00731 other isoform, or with tags, fused parts or gaps limits assumed): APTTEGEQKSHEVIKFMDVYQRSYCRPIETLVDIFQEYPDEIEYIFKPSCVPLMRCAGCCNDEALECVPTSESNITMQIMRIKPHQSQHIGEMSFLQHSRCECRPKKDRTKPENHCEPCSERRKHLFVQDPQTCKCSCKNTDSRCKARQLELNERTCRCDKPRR

Question: Avastin® (bevacizumab) (antibody) was tested. Which pKd did it give?
Answer: 8.16
